The values that follow come from patent publication US20150368309A1 (SHIRE HUMAN GENETIC THERAPIES, published 2015).

Values joined by “and” are separate entries in the source; they are usually repeats but may differ in a detail not shown here. Equal entries are not always repeated.

The target in test [1] is T1, mouse sFlt-1 (mouse, UniProt P35969 23-759, limits assumed).
T1 construct: also called msFlt-1
T1 sequence (looked up): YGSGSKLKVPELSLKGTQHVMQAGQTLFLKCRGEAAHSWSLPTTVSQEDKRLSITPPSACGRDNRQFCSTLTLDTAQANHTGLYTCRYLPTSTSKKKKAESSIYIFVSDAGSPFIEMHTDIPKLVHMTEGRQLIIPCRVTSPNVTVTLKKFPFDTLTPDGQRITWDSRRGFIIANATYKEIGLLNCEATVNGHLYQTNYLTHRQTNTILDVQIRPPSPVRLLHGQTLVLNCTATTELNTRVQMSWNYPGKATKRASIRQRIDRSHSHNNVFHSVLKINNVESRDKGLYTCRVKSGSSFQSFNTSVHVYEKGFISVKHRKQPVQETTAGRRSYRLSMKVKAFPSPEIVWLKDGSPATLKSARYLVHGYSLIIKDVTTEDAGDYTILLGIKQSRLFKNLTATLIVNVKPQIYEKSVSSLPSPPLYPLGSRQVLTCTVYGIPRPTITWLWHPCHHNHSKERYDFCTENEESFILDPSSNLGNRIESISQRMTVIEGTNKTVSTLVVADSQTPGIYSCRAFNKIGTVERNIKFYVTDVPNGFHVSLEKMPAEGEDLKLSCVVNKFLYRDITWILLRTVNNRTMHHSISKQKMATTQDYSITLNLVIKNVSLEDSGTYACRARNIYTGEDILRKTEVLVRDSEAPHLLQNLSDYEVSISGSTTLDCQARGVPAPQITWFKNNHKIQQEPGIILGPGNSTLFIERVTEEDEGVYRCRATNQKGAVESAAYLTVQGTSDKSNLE
Description: SPR (Biacore T200), msFlt-1 captured, PLGF as analyte, 1:1 model. Here is the method:
(§1) In the capture approach, goat anti-hIgG Fc polyclonal antibody (30 μg/mL in 10 mM acetate buffer, pH 5.0) was immobilized onto a CM5 chip by amine coupling. The immobilization level or surface density of anti-hIgG Fc antibody was controlled between 6000 to 8000 RU. For the kinetic study, sFlt-1-Fc was captured on the surface that was immobilized with the anti-hIgG Fc antibody, before each injection of PLGF variants. The capture level of sFlt-1-Fc (10 μg/mL) was controlled by varying contact time, 10 to 30 seconds, at flow rate 10 μL/min. PLGF variants, as analytes, were serially diluted in HBS-EP+ buffer from 50 to 0.03 nM, and injected to the surface that captured sFlt-1-Fc. The association time for each PLGF variants injection was 300 seconds at 30 μL/min and dissociation time was 600 seconds at the same flow rate. After each round of PLGF variants' injection, a regeneration of […] H3PO4 pH1.8 at 60 μl/min for 90 seconds was performed. The regeneration step effectively removes the complex of sFlt-1-Fc and PLGF variants from the surface that was immobilized with anti-hIgG Fc antibody. A stabilization step was applied for 90 seconds after regeneration.
(§2) The binding characteristics of PLGF variants, PLGF C59A, human WT PLGF and mouse WT PLGF, with msFlt-1 were studied in the mouse model. The same capture approach for hsFlt-1 was used for the msFlt-1.
A general note: Surface plasmon resonance follows binding to a sensor surface in real time, without labels.

Test [2] deals with T1, mouse sFlt-1. The test can be described thus: SPR (Biacore T200), msFlt-1 captured, 1:1 model; column 'KD (M) Average' of the two runs. Here is the method: as §1, §2
Test [3] has as its target Flt-1 receptor (plate based assay) (Homo sapiens (Human), UniProt P17948 27-758). The test can be described thus: plate based assay: Flt-1 captured by coated mouse monoclonal anti-Flt-1 antibody, bound PLGF detected with biotinylated goat anti-PLGF antibody and streptavidin-HRP, OD450. As to the method: A plate based assay was performed to examine the binding of mutant PLGF protein to Flt-1. Briefly, plates were coated with a mouse monoclonal anti-Flt-1 antibody for capture. After washing and blocking steps, 250 ng/ml of Flt-1 receptor was incubated with WT PLGF (0-400,000 pg/ml) or PLGF C59A (0-40,000 pg/ml) in the plate. After further washing steps, bound WT or mutant PLGF were detected using a biotinylated goat anti-PLGF antibody and streptavidin-HRP immunodetection system. PLGF C59A appeared to bind Flt-1 with lower affinity than WT PLGF. (FIG. 1).

Test [4] concerns the target T2, human sFlt-1-Fc (human, UniProt P17948-2 27-687, limits assumed).
T2 construct: A bought fusion protein; also called hsFlt-1-Fc; hsFlt-1-Fc dimer; not shown: Fc part (captured and detected with anti-human IgG Fc)
Description: SPR (Biacore T200), hsFlt-1-Fc captured by anti-hIgG Fc, PLGF as analyte, 1:1 model; first of the two unlabelled rows for Human WT-PLGF on Human sFlt-1.

In test [5] the target is T2, human sFlt-1-Fc. Description: SPR (Biacore T200), hsFlt-1-Fc captured by anti-hIgG Fc, PLGF as analyte, 1:1 model. As to the method: as §1
Two BIACORE experiment formats, single cycle kinetics and anti-Fc capture approach, were used to study binding characteristic of PLGF variants with hsFlt-1.

Test [6] addresses T2, human sFlt-1-Fc. Description: VEGF:sFlt1 inhibition ELISA: binding of human sFlt-1 Fc to immobilized human VEGF in the presence of PLGF, detected with HRP anti-human IgG Fc, normalized to binding without PLGF. As to the method:
Inhibition of binding of VEGF to sFlt-1 by WT PLGF and PLGFC59A was also assessed by ELISA. The addition of recombinant human […] inhibited binding of recombinant VEGF to recombinant human sFlt-1 chimera (FIG. 6). Binding of human sFlt-1 Fc to immobilized human VEGF was quantified by immunodetection with HRP conjugated anti-human IgG Fc. Data were normalized to binding sFlt-1 Fc to VEGF in the absence of PLGF.

The target of test [7] is T2, human sFlt-1-Fc. Description: SPR (Biacore T200), hsFlt-1-Fc, 1:1 model; column 'KD (M) Average' of the two runs.
In test [8] the target is T2, human sFlt-1-Fc. Description: surface plasmon resonance (BIACORE), overlaid multi-cycle sensorgrams with 1:1 binding model fit; the sheet says only 'sFlt-1', neither species nor format is printed.
Test [9] deals with T2, human sFlt-1-Fc. The test can be described thus: isothermal titration calorimetry, PLGF C59A (77 uM) titrated into sFlt-1-Fc (5.3 uM), 25 C, PBS pH 7.4. As to the method: (§3) PLGF C59A and human sFlt-1-Fc (Cat#321-FL/CF, R&D System) were extensively dialyzed against PBS pH 7.4 buffer overnight. After dialysis, the proteins were concentrated using VIVISPIN 500 (10 kDa Cutoff, Cat# vs0601). The ratio of PLGF C59A in syringe to sFlt-1-Fc in the cell was about 10:1, with PLGF C59A concentration to be 77 μM, and the concentration of sFlt1-Fc to be 5.3 μM. Titrations were carried out using 2.0-μL injections for total 18 injections. An initial 2-μl injection was carried out but the data not included in the final data analysis. All titrations were done at 25° C. The binding isotherm was fitted with nonlinear regression on ORIGIN (GE MICROCAL, INC). The stoichiometry (N) of the binding interaction, the equilibrium association constant (KA) and enthalpy (ΔH) of the complex formation were calculated from the titration data.
(ITC needs no label: the signal is the heat of the interaction.)

Test [10] addresses T2, human sFlt-1-Fc. Description: SPR (Biacore T200), hsFlt-1-Fc, 1:1 model; format of this run (capture or single cycle) not marked in the table. Here is the method:
In the single cycle kinetic approach, PLGF C59A at 50 μg/ml in 10 mM acetate buffer pH 5.0 was immobilized via ligand thiol coupling to ˜200 RU. sFlt-1-Fc dimer was serially diluted in HBS-EP+ running buffer from 30 to 1.875 nM. The sFlt-1-Fc dimer was injected from low to high concentration sequentially, without dissociation phase and regeneration step. The association step was 180 seconds per injection at 30 μL/min. At the end of the last injection, one single dissociation step was performed at 30 μL/min, for one hour to collect sufficient dissociation data.
Due to the nonspecific binding of hsFlt-1 on the reference cells and the poor regeneration conditions for PLGF C59A, a single cycle kinetic method were adopted by immobilizing PLGF C59A vial thiol coupling, and injecting hsFlt-1 as analyte. In the single cycle kinetic approach, PLGF C59A was immobilized onto CM4 chips through free cysteine residuals, C69 and C125, in PLGF C59A. Concentration of the Flt1-Fc dimer injected was varied from 0.37 to 30 nM. The binding characteristics, association rate constant (Ka), dissociation rate constant (Kd) and equilibrium dissociation constant (KD), are summarized in Table 6.

Test [11] has as its target T1, mouse sFlt-1. The test can be described thus: SPR, capture approach. As to the method: as §1, §2
Test [12] deals with T2, human sFlt-1-Fc. Description: isothermal titration calorimetry, PLGF C59A in the syringe titrated into sFlt-1-Fc in the cell, 25 C, PBS pH 7.4, model OneSites. Here is the method:
as §3

T2 sequence (P17948 other isoform, or with tags, fused parts or gaps limits assumed): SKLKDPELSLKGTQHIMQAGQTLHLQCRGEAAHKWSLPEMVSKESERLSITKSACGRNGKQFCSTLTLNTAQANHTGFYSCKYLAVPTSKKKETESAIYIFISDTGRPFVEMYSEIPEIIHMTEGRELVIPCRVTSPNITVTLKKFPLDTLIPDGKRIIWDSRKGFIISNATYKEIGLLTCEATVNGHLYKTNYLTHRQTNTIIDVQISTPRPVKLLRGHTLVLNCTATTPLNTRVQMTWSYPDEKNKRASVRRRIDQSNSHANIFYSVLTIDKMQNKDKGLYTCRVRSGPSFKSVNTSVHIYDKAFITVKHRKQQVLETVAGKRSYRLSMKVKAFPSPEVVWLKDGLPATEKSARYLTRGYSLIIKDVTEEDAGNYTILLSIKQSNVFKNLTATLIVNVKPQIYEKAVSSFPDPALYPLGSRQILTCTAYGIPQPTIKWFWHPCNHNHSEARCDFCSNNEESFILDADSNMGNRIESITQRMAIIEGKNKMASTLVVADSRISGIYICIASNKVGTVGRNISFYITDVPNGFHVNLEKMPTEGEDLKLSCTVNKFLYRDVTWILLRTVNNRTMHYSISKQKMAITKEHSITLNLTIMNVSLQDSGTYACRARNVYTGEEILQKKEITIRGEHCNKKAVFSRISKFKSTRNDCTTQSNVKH
Flt-1 receptor (plate based assay), sequence (P17948 27-758 limits assumed): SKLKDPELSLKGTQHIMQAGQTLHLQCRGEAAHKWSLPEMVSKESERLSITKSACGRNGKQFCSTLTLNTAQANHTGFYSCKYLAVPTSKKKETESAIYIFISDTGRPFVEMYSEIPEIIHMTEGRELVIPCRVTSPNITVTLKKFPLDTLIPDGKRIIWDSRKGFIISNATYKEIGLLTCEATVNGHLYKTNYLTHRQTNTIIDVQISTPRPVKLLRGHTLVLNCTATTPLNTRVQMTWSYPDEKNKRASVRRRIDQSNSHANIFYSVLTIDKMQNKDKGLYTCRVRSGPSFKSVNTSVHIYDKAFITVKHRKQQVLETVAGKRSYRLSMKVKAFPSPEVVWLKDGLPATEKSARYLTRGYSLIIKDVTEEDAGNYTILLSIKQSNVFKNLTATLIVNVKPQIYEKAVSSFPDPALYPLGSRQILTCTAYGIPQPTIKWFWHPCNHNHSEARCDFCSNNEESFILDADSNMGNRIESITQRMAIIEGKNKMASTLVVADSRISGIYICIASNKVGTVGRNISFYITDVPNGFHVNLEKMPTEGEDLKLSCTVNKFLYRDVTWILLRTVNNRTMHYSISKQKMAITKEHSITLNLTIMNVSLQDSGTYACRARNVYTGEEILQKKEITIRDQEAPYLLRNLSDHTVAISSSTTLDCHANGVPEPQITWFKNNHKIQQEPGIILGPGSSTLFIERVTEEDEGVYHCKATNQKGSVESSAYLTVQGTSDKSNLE

B1: wild-type human PLGF protein (ligand)
chain: LPAVPPQQWALSAGNGSSEVEVVPFQEVWGRSYCRALERLVDVVSEYPSEVEHMFSPSCVSLLRCTGCCGDENLHCVPVETANVTMQLLKIRSGDRPSYVELTFSQHVRCECRPLREKMKPERCGDAVPRR
notes: also called WT PLGF; Human WT-PLGF
One may read the koff as a measure of how fast the partners let go of each other. Low values mean slow dissociation, high ones fast dissociation. By kon is commonly meant the second-order rate constant of association. A higher kon goes with fast association. In general, Kd refers to the equilibrium constant for the complex coming apart. Higher therefore signals weaker binding. In general, EC50 (read off the curve) refers to the concentration needed to bring the measured effect to its halfway point. Low readings indicate an effect from little substance, high ones a need for much substance. A word on the IC50: it is the concentration needed to halve the response being measured. In the case of B1, the koff with mouse sFlt-1 [1] is 0.000243 s⁻¹ and 0.000152 s⁻¹; with human sFlt-1-Fc [5], 6.03e-05 s⁻¹ and 8.86e-05 s⁻¹. In addition, the kon in the test with mouse sFlt-1 [1] was 2.73e+06 M⁻¹ s⁻¹ and 6.36e+06 M⁻¹ s⁻¹; with human sFlt-1-Fc [4], 2.33e+06 M⁻¹ s⁻¹; in the test with human sFlt-1-Fc [5], 1.61e+06 M⁻¹ s⁻¹. Also, the Kd with mouse sFlt-1 [2] was 0.0565 nM; with human sFlt-1-Fc [5] it was 0.0259 nM and 0.0551 nM; in the test with human sFlt-1-Fc [7], 0.0405 nM. Besides, in test [3], the “EC50 (read off the curve)” value is ~0.2 nM. Further, in the test with human sFlt-1-Fc [6], the IC50 was determined as 4.59 nM.

B2: PLGF C59A (ligand)
chain: LPAVPPQQWALSAGNGSSEVEVVPFQEVWGRSYCRALERLVDVVSEYPSEVEHMFSPSAVSLLRCTGCCGDENLHCVPVETANVTMQLLKIRSGDRPSYVELTFSQHVRCECRPLREKMKPERCGDAVPRRHHHHHH
notes: Expressed in human fibrosarcoma cells, purified on a Nickel column, glycosylated; RC4 96.7% monomer; R3 97.1% monomer, formulated in 1 mM DTT; also called C59A PLGF; not shown: Tev protease cleavage site added at the C-terminus
Regarding B2, in the test with human sFlt-1-Fc [8], the Kd stood at 0.572 nM, the off-rate (koff) stood at 0.000338 s⁻¹ and the association rate constant (kon) is 592000 M⁻¹ s⁻¹. In the test with mouse sFlt-1 [1], the Kd is 7.22 nM and 3.12 nM; the off-rate constant (koff) was 0.000496 s⁻¹ and 0.000633 s⁻¹; the kon is 159000 M⁻¹ s⁻¹ and 87700 M⁻¹ s⁻¹. The same molecule showed a Kd in the test with mouse sFlt-1 [2] of 5.17 nM. The Kd with human sFlt-1-Fc [9] was ~49 nM. Further, in the test with human sFlt-1-Fc [10], the Kd was 1.61 nM and 0.886 nM; the koff is 0.000372 s⁻¹ and 0.000234 s⁻¹; the kon was 231000 M⁻¹ s⁻¹ and 264000 M⁻¹ s⁻¹. In the test with human sFlt-1-Fc [6], the IC50 stood at 28.3 nM. The Kd in the test with human sFlt-1-Fc [7] came out at 1.25 nM. In the test with mouse sFlt-1 [11], the “fold weaker affinity than human WT PLGF with msFlt-1” value was ~90 fold and the “fold weaker affinity than mouse WT PLGF with msFlt-1” value was ~250 fold. In the test with human sFlt-1-Fc [12], the Ka stood at 2.03e+07 M⁻¹, the ΔH was -12.8 kcal/mol and the ΔS is -9.4 cal/mol/deg.

B3: mouse WT PLGF (ligand, UniProt P49764 19-158, looked up)
chain: VHSQGALSAGNNSTEVEVVPFNEVWGRSYCRPMEKLVYILDEYPDEVSHIFSPSCVLLSRCSGCCGDEGLHCVPIKTANITMQILKIPPNRDPHFYVEMTFSQDVLCECRPILETTKAERRKTKGKRKRSRNSQTEEPHP
On to B3, for which, in the test with mouse sFlt-1 [1], the Kd was 0.0301 nM and 0.0109 nM; the koff was 0.000135 s⁻¹ and 9.69e-05 s⁻¹; the kon was 4.49e+06 M⁻¹ s⁻¹ and 8.86e+06 M⁻¹ s⁻¹. In addition, the Kd with mouse sFlt-1 [2] amounted to 0.0205 nM.
